Entries after “also recorded” stand apart in the source; their conditions may differ.
Key:
[1] = test system: FGFR2, FRS2, and ERK phosphorylation in stomach cancer cell line SNU-16; experiment: FGFR2 signal inhibitory effect on SNU-16 by Western blotting; assay type: cell-based, human; details: FGF7 10 ng/ml, 10 minutes
Protocol: The FGFR2 signal inhibitory effect of the obtained antibody was tested using a stomach cancer cell line SNU-16 endogenously expressing FGFR2. SNU-16 cells (3×10^6) suspended in an RPMI medium containing 0.1% bovine serum albumin were seeded onto a 12-well plate and incubated overnight. The rat FR2-10 antibody was added thereto, and the cells were incubated at 37° C. for 1 hour. Then, 10 ng/ml FGF7 (manufactured by R&D systems, Inc.) was added thereto, and the cells were further incubated for 10 minutes. Subsequently, the cells were lysed with an RIPA buffer (1% NP-40, 0.5% sodium deoxycholate, and 0.1% SDS in PBS) containing Complete Mini (manufactured by Roche Applied Science) and a phosphatase inhibitor (manufactured by Nacalai Tesque Inc.). The lysates were centrifuged to obtain the cell lysis solution, and the protein concentration was determined using BCA protein assay (manufactured by Pierce Biotechnology, Inc.). The lysates were resuspended in a DTT-containing buffer and denatured at 99° C. for 5 minutes. The protein (20 μg/lane) was separated by SDS-PAGE on a 5 to 20% gel. The protein was blotted onto a PVDF membrane (manufactured by Bio-Rad Laboratories, Inc.). The membrane was blocked with TBS-T (2 mM Tris, 50 mM NaCl, and 0.1% Tween-20 (pH 7.4)) containing 5% skimmed milk (MEGMILK SNOW BRAND Co., Ltd.) at room temperature for 1 hour. […]

human FGFR2 IIIc = molecular target: T1, human FGFR2 IIIc (Homo sapiens, UniProt P21802); experiment: Elk1 luciferase reporter gene assay, FGFR2 IIIc-expressing 293α cells, ligand FGF9; assay type: cell-based; details: antibody preincubated 1 hour; FGF9 10 ng/ml, 6 hours
T1 construct: a human FGFR2 IIIc variant protein (isoform 1: NP_000132); expressed in transfected cells; host or cells: 293α cells (HEK293 stably transfected with integrin αv and β3)
T1 sequence (P21802 22-821): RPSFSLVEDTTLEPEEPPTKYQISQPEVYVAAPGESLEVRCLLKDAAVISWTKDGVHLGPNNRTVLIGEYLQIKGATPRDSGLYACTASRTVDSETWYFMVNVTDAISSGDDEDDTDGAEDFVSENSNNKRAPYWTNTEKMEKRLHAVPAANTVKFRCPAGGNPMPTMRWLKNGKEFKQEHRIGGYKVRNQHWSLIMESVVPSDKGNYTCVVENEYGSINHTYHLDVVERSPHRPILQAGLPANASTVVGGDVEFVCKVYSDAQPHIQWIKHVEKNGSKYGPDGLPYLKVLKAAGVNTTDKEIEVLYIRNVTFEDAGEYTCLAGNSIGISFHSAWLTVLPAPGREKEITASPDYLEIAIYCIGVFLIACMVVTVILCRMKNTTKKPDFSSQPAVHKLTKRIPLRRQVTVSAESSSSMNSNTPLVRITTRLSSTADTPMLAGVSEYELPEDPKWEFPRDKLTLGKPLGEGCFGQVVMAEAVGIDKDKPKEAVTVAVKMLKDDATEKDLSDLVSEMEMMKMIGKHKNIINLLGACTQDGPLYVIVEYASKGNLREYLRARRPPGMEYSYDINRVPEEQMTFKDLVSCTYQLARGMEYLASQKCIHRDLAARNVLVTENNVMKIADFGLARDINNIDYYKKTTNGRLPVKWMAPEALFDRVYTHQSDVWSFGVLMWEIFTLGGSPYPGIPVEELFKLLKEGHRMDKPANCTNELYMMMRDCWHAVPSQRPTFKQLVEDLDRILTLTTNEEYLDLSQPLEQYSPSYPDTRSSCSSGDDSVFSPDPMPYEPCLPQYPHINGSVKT
Protocol: The Elk1 luciferase reporter gene assay was carried out using each hybridoma culture supernatant selected in Example 1)-5. A cell line 293α, which was HEK293 cells stably transfected with integrin αv and integrin β3 expression vectors, was transiently cotransfected with pcDNA-DEST40-FGFR2 IIIb or pcDNA-DEST40, pFA2-Elk1 (manufactured by Stratagene Corp.), pFR-Luc2CP, and pGL4.74[hRluc/TK] (manufactured by Promega Corp.) according to transfection procedures using Lipofectamine 2000 (manufactured by Invitrogen Corp.), inoculated to a white 96-well cell culture plate (manufactured by Corning Inc.), and cultured overnight at 37° C. under 5% CO2 conditions. On the next day, the culture supernatant was removed, and the hybridoma culture supernatant diluted 5-fold with DMEM containing 5% FBS was added at a concentration of 50 μl/well to the plate. […] The firefly/Renilla ratio was calculated to normalize data on each well.
In order to evaluate the signal-neutralizing effects of the obtained antibodies by the Elk1 luciferase reporter gene assay, 293α cells were cotransfected with pcDNA-DEST40-FGFR2 IIIb or pcDNA-DEST40-FGFR2 IIIc constructed in Example 1)-3-1, pFA2-Elk1 (manufactured by Stratagene Corp.), pFR-Luc2CP, and pGL4.74[hRluc/TK] […] The firefly/Renilla ratio was calculated to normalize data on each well. […]

Molecule	phosphorylation of FGFR2, FRS2, and ERK induced by FGF7 [1]	ligand FGF9 dependent reporter activation in the FGFR2 IIIc-expressing cells (human FGFR2 IIIc)
FR2-10: anti-human FGFR2 rat monoclonal antibody obtained by the method described in Example 1; VH SEQ ID NO: 12, VL SEQ ID NO: 21 (antibody, listed as Rattus norvegicus, V domains shown) VH: EVQLVESGGGLVQPGRSLKLSCVASGFRFNDFWMTWIRQAPGKGLEWVASITYTGDNTYYAGSVKGRITISRDNAKSTLYLQMNSLRSEDTATYYCTRDDYGGYSPYYMDAWGQGTSVTVSS VL: DIQMTQSPSSLSAFLGDRVTITCRASQDIGNYLRWFQQKPGKSPRLMIYGATNLANGVPSRFSGSRSGSDYSLTINNLESEDMAIYYCLKHNEYPFTFGSGTKLEIKRA	inhibited FGFR2, FRS2, and ERK phosphorylation; also recorded: inhibited the increase in the phosphorylation of these molecules in a concentration dependent manner	–
FR2-13: anti-human FGFR2 rat monoclonal antibody obtained by the method described in Example 1; VH SEQ ID NO: 14, VL SEQ ID NO: 24 (antibody, listed as Rattus norvegicus, V domains shown) VH: QVKLLQSGAELVKPGASVKLSCKTSGFTFSTSYMSWLKQVPGPSIEWIGWIYAGDGGTKYNQKFKGKATLTVDKSSSTAYMDLSSLTSEDAAVYFCATDGYGDWFAYWGQGTLVTVSS VL: DIQMTQSPASLSASLGETVTIECRASEDIYSNLAWYQQKPGNSPQLLIYDANILADGVPSRFSGSGSGTQYSLKINSLQSEDVASYFCQQYNNYPPFTFGVGTKLELKRA	–	inhibited
FR2-14: anti-human FGFR2 rat monoclonal antibody obtained by the method described in Example 1; VH SEQ ID NO: 16, VL SEQ ID NO: 26 (antibody, listed as Rattus norvegicus, V domains shown) VH: QVKLLQSGAELVKPGASVKLSCKTSGFTFSTSYMSWLKQVPGPSTEWIGWIYAGDGGTKYNQKFKGKATLTVDKFSSTAYMDLSSLTSEDAAVYFCATDGYGDWFTYWGQGTLVTVSS VL: DIQMTQSPASLSASLGETVTIECRASEDIYSNLAWYQQKPGNSPQLLIYDANILADGVPSRFSGSGSGTQYSLKINSLQSEDVASYFCQQYNNYPPFTFGAGTKLELKRA	–	inhibited
